# Data: the nanobody polyreactivity screen of Harvey et al. (2022)
# Test: yeast display, Sf9 membrane polyspecificity reagent, FACS + sequencing; frameworks hold sequencing errors
# How it was run: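 Genes from sorted yeast were amplified by colony PCR, read by MiSeq 2 × 250 sequencing and filtered on CDR length. These cells carried a synthetic nanobody library in Saccharomyces cerevisiae BJ5465 and were sorted by FACS into low and high (top ~1%) gates on anti-HA and streptavidin fluorescence. Polyreactivity is labelled according to the gate of origin.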
row,Sequence,polyreactivity (PSR sort gate)
1,QVQLVESGGGLVQAGASLRLSCAASGSIFKDYAMGWYRQAPWKERDLLAAITSRTSTTYADSVKGRFTISRDNAKNTVYLQMNSLKPEDTAVYYCAVEDLGSEGWGWYKEMDYWGQGTQVTVSS,low polyreactivity
2,QVQLVESGGGLVQAGASLRLSCAASGSIFRGNAMGWYRQAPGKERQLVAAITRSGGRTYYADSVKGRFTISRDNAKNTVYLQMISMKPEDTAVYYCAAVSSYSRYRRTYYYWGHGTQVTVSS,high polyreactivity
3,QVQLVESGGGLVQAGASLRLSCAASGSTFDQYVMGWYRQAPCKERELVAAISRRGGSTYYADSVKGRFTISRDNEKNTVYLQMNSLQPEDTAVYYCAAPSYYRYDYWGQGTQVTVSS,high polyreactivity
4,QVQLVESGGGLVQAGASLRLSCAASGSTFPVYAMGWYRQAPGKERELVAAITGSGARTYYADSVKVRFTISRDNAKNTVYLQMNSLKPEDTAVYYCAKRTVIAVYGYPYRYGMNYWGQGTKVTVSS,high polyreactivity
5,QVQLVESGGGLVQAGASLRLSCSPSGRTFYYYAMGWYRPAPGKEREWVAAISQSGGSTYYADSVKGRFTISRDNAKKTVFLQMNSLKPEDTAVYYCKAYYGFGHRIYDFWGQGTQVTVSS,high polyreactivity
6,QVQLVESGGGLVQAGASLRLSSAASGSTFSRYAMGWYRQAPGKEREFVADITFRTSSTNYADSVKGRFTISRDNAKNTVYLQMNSLKPEDTAVYDCAADVIFTWLAYSTEYDYWGQGSQVTVSS,low polyreactivity
7,QVQLVESGGGLVQAGCILRLSCDASGRTFAPYAMGWYRQAPGKAWELVAAITNGGSPSYADSVKGRFTISRDNAKNTVYLEMNSLKREDTAVFYCAADIVSSTDYPFEYWGQGTQVTVSS,low polyreactivity
8,QVQLVESGGGLVQAGCRLRLSCAASGFIFCYNAMGLYRQAPGKERELVAAITTAGSTNYADSVKGRFTISRDNAKNTVYVQMNSLKPEDTAVYYCNKVQLRNRYPYRYGFGDVGYWGQGTQVTVSS,low polyreactivity
9,QVQLVESGGGLVQAGCRLRLSCAASGININAMGWYRQAPGKERELVAAISRGGSTYYADSVKGRFTISRDNAKNTVYLQMNSLKPEDTAVYYCAKLIGRWRLYHTFVKGDYWGQGTQVTVSS,high polyreactivity
10,QVQLVESGGGLVQAGCSILLSCAASGRIFDNYAMGWSRQAPGKERELVAASRYSDDATDYADSVKGRFTISRDNAKNTVYLQMNSLIPEDPAVYYCAADVKRYGWEYGYWGQGTQVTVSS,low polyreactivity
11,QVQLVESGGGLVQAGCSLGISCAASGSTVRGNAMGWYRQAPGKEREFVAAITVSGGSTYYADSVKGRFTLSRDNAKINVYVEMNSLKPEDNAVYYCAASVYKGWPTHYDYWGQGTQVTVSS,high polyreactivity
12,QVQLVESGGGLVQAGCSLLLICAASGRTFCFNTMGWYRQAPGKERELVASISGSGGRTYFADSVKGRFTISRDNEKNTVYFQMNSLKPEDTAVYYCAARRYSRDYDYWGQGTQVTVSS,high polyreactivity
13,QVQLVESGGGLVQAGCSLRCSCPDSGGIFTRYVMGWYRPAPGKEREMVAAISSRGGSTYYADSVKGRFTISRDNAKNTVYLQMNSLKPEDTAVYYSAAEQGRTSYRYYYWGQGTQVTVSS,high polyreactivity
14,QVQLVESGGGLVQAGCSLRISCSASGRTFIGYAMGSYRQAPGKERELVAAICRSGGSTYYADSVKGRFTISRDNAKNTVYLQMNSLKPEDTAVYYCAKQRRDDNGGYWGQATQVTVSS,high polyreactivity
15,QVQLVESGGGLVQAGCSLRLSCAAPGFTLKRYAMGWYRQAPGKERELVAAISRTGGSTYHADSVKGRFTITRDNAKNTVYLQMNSLKPEVTAVYYCAAATSPGIYDHWGQGTQLTVSS,high polyreactivity
16,QVQLVESGGGLVQAGCSLRLSCAASGATPQNAMGWYRQAPGKERELVAAISKRGGSTYYADSVKGRFTISRDNAKNTVYLQMISLKPEDTAVYYCAKSGRNYYDDDYWGQGTQVTVSS,high polyreactivity
